Assay [1] has as its target T1, human CD112R, full length, expressed on cells (YTS-hCD112R; Jurkat-NFAT-luc-hCD112R) (human, UniProt Q6DKI7 42-326).
T1 construct: whole, on cells; also called PVRIG; YTS-hCD112R cells
T1 sequence (looked up): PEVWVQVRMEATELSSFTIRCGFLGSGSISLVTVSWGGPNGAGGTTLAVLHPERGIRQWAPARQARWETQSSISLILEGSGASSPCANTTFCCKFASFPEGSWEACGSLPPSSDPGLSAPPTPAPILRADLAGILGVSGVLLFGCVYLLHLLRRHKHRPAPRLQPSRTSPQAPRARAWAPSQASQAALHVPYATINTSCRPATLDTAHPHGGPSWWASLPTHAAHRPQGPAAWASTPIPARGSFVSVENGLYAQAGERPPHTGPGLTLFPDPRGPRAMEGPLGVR
The experiment in a line: FACS-based competition on YTS-hCD112R cells, competitor hCD112-ECD-hFc. The text has this:
(§1) Then cells were washed three times with PBS containing 0.5% BSA. Ligands binding to cells were detected by adding goat anti-human IgG-FITC Ab (Pierce-Thermo Fisher Scientific).

The target of assay [2] is T1, human CD112R, full length, expressed on …. The assay can be described thus: FACS competition on YTS-hCD112R cells against hCD112-ECD-hFc, ligand detected with goat anti-human IgG-FITC.
Excerpt: as §1

Assay [3] addresses T2, hCD112R-ECD-His6-Avi (human, UniProt Q6DKI7 42-172, biotinylated (Avi tag) in the ELISA assays).
T2 construct: range 42-172; Expressed in HEK 293F cells; Analyte in SPR, and captured on streptavidin in ELISA; also called biotinylated hCD112R-ECD-His6-Avi; not shown: C-terminal His6-Avi tag
T2 sequence (looked up): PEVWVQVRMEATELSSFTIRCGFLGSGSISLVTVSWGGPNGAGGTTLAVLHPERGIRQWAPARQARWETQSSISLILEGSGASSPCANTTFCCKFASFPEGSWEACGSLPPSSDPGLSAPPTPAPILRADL
The experiment in a line: SPR (Biacore T200), multi-cycle; 733-mIgG2a captured on Protein A/G, hCD112R-ECD-His6-Avi injected; 1:1 Langmuir (the text prints the rounded 0.2 nM). The protocol: (§2) Protein A/G (Thermo Fisher) was covalently attached to surfaces of a CM5 sensor chip using an amine coupling kit (GE Healthcare). […] Binding kinetics were evaluated using a 1:1 Langmuir binding model. The association rates (ka), dissociation rates (kd), and affinity constants (KD) were calculated using Biacore T200 evaluation software.

The target in assay [4] is T2, hCD112R-ECD-His6-Avi. The assay can be described thus: SPR (Biacore T200), multi-cycle, 733-mIgG2a captured by Protein A/G, hCD112R-ECD-His6-Avi as analyte, 1:1 Langmuir model. Here is the method: as §2
The target in assay [5] is T2, hCD112R-ECD-His6-Avi. The assay can be described thus: SPR (Biacore T200), multi-cycle; 733-mIgG2a captured on Protein A/G, hCD112R-ECD-His6-Avi injected; 1:1 Langmuir. The protocol: as §2
The target of assay [6] is human CD112R, full length, expressed on cells (YTS-hCD112R; Jurkat-NFAT-luc-hCD112R) (human) (UniProt Q6DKI7). The assay can be described thus: cell-based or functional assay.
The target in assay [7] is T3, hCD112-ECD-hFc (extracellular domain of hCD112 fused to the Fc domain of human IgG1) (human, UniProt Q92692 32-360).
T3 construct: extracellular domain; also called hCD112 ligand; not shown: Fc domain of human IgG1
T3 sequence (looked up): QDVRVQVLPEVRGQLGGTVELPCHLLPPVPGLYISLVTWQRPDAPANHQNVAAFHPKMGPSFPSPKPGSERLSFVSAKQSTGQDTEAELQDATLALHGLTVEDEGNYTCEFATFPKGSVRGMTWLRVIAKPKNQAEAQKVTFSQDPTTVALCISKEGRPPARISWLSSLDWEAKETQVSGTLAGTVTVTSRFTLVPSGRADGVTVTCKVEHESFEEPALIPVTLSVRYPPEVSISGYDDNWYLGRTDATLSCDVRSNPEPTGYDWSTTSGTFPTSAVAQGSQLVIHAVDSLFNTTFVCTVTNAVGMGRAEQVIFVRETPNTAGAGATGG
The experiment in a line: SPR (Biacore T200), single injection; hCD112R-ECD-mFc variant captured on anti-mFc Ab, hCD112-ECD-hFc injected. The protocol:
(§3) Kinetic analyses of the bindings of WT or mutated hCD112R-ECD-mFc proteins to H733 and hCD112-ECD were performed on a Biacore T200 instrument (Biacore, GE Healthcare). For the single-cycle SPR analysis, anti-mFc Ab (Thermo Fisher) was covalently attached to surfaces of a CM5 sensor chip using an amine coupling kit (GE Healthcare). WT or mutated hCD112R-ECD mFc fusion proteins were captured on the chip and H733-hIgG4 or hCD112-ECD-hFc were then injected. For the multi-cycle SPR analysis, anti-hFc Ab (Thermo Fisher) was covalently attached to surfaces of a CM5 sensor chip using an amine coupling kit (GE Healthcare). H733-hIgG4 or hCD112-ECD-hFc protein was captured on the chip and 2-fold serially diluted WT or mutated hCD112R-ECD-mFc proteins (3.125-100 nM) were then injected. Binding kinetics were evaluated using a 1:1 Langmuir binding model. The association rates (ka), dissociation rates (kd), and affinity constants (KD) were calculated using Biacore T200 evaluation software.

Assay [8] has as its target T3, hCD112-ECD-hFc (extracellular domain of …). The experiment in a line: SPR (Biacore T200), multi-cycle; hCD112-ECD-hFc captured on anti-hFc Ab, hCD112R-ECD-mFc variant injected [Cont') C]. The protocol:
as §3

For assay [9] the target is unchanged. The experiment in a line: SPR (Biacore T200), multi-cycle; hCD112-ECD-hFc captured on anti-hFc Ab, hCD112R-ECD-mFc variant injected (3.125-100 nM); 1:1 Langmuir [Cont') C]. Here is the method:
as §3

For assay [10] the target is unchanged. The experiment in a line: SPR (Biacore T200), multi-cycle; hCD112-ECD-hFc captured on anti-hFc Ab, hCD112R-ECD-mFc WT injected (3.125-100 nM); 1:1 Langmuir [Cont') C]. Here is the method: as §3

B1: anti-hCD112R mAb 733 (733-mIgG2a) (antibody, V domains shown)
VH: QVQLQQSGAELVRPGTSVKVSCKASGYAFTNYLIEWLKQRPGQGLEWIGVINPGHGFTNYNEKFKGKATLTADKSSSTAYMQLSSLTSDDSAVYFCARGEWDWYFDVWGAGTTVTVSS
VL: DIVMTQSQKFMSTSVGDRVSITCKASQNVGTAVAWYQQKPGQSPKLLIYSTSNRYTGVPDRFTGSGSGTDFTLTISNLQSEDLADYFCQQCSSYPFTFGSGTKLEIK
notes: VH and VL were cloned onto the constant regions of mouse IgG2a heavy and light chains (full-length mIgG2a, made in HEK 293F)
Consider B1, for which, in assay [1], the 50% inhibitory concentration (IC50) amounted to 0.29 mg/L. The “IC50 (read off the curve)” value in assay [2] was ~2 mg/L. Further, binding with hCD112R-ECD-His6-Avi [3] was characterised by a dissociation constant (Kd) of 0.000198 µM. Further, in the assay with hCD112R-ECD-His6-Avi [4], the Kd stood at 0.0002 µM. In the assay with hCD112R-ECD-His6-Avi [5], this molecule registered a koff of 0.000888 s⁻¹ and a kon of 4.49e+06 M⁻¹ s⁻¹.

B2: COM701 (humanized anti-hCD112R Ab developed by the Compugen Company, hIgG4) (antibody, from another filing, V domains shown)
VH: QVQLVQSGAEVKKPGASVKVSCKASGYTFTDYNINWVRQAPGQGLEWMGYIYPYIGGSGYAQKFQGRVTMTRDTSTSTVYMELSSLRSEDTAVYYCAREDKTARNAMDYWGQGTLVTVSS
VL: DIQMTQSPSSLSASVGDRVTITCRVSENIYSNLAWYQQKPGKAPKLLIYEATNLAEGVPSRFSGSGSGTDFTLTISSLQPEDFATYYCQHFWGTPYTFGQGTKLEIK
Regarding B2, the EC50 of luciferase production, Jurkat-NFAT-luc-hCD112R reporter cells with CHO-OKT3scFv hCD112 cells in assay [6] is 0.69 mg/L.

B3: S67P (Fc fusion, human, UniProt Q6DKI7 42-172, looked up)
Fc fusion chain: PEVWVQVRMEATELSSFTIRCGFLGPGSISLVTVSWGGPNGAGGTTLAVLHPERGIRQWAPARQARWETQSSISLILEGSGASSPCANTTFCCKFASFPEGSWEACGSLPPSSDPGLSAPPTPAPILRADL
notes: extracellular domain, amino acids 42-172; also called hCD112R-ECD-mFc S67P variant
As for B3, the binding result in [7] is reported as “binds”.

B4: L72A (Fc fusion, human, UniProt Q6DKI7 42-172, looked up)
Fc fusion chain: PEVWVQVRMEATELSSFTIRCGFLGSGSISAVTVSWGGPNGAGGTTLAVLHPERGIRQWAPARQARWETQSSISLILEGSGASSPCANTTFCCKFASFPEGSWEACGSLPPSSDPGLSAPPTPAPILRADL
notes: extracellular domain, amino acids 42-172; alanine-scanning variant; also called hCD112R-ECD-mFc L72A variant
Turning to B4, in assay [8], the binding result is “no binding”.

B5: H92A (Fc fusion, human, UniProt Q6DKI7 42-172, looked up)
Fc fusion chain: PEVWVQVRMEATELSSFTIRCGFLGSGSISLVTVSWGGPNGAGGTTLAVLAPERGIRQWAPARQARWETQSSISLILEGSGASSPCANTTFCCKFASFPEGSWEACGSLPPSSDPGLSAPPTPAPILRADL
notes: extracellular domain, amino acids 42-172; alanine-scanning variant; also called hCD112R-ECD-mFc H92A variant
In [9], B5 showed a dissociation constant Kd of 0.0721 µM, a koff of 0.00532 s⁻¹ and an on-rate constant (kon) of 73700 M⁻¹ s⁻¹.

B6: E94A (Fc fusion, human, UniProt Q6DKI7 42-172, looked up)
Fc fusion chain: PEVWVQVRMEATELSSFTIRCGFLGSGSISLVTVSWGGPNGAGGTTLAVLHPARGIRQWAPARQARWETQSSISLILEGSGASSPCANTTFCCKFASFPEGSWEACGSLPPSSDPGLSAPPTPAPILRADL
notes: extracellular domain, amino acids 42-172; alanine-scanning variant; also called hCD112R-ECD-mFc E94A variant
In [9], B6 came in with a Kd of 0.112 µM, a koff of 0.0126 s⁻¹ and an on-rate constant (kon) of 112000 M⁻¹ s⁻¹.

B7: hCD112R-ECD-mFc WT (Fc fusion, human, UniProt Q6DKI7 42-172, looked up)
chain: PEVWVQVRMEATELSSFTIRCGFLGSGSISLVTVSWGGPNGAGGTTLAVLHPERGIRQWAPARQARWETQSSISLILEGSGASSPCANTTFCCKFASFPEGSWEACGSLPPSSDPGLSAPPTPAPILRADL
notes: range 42-172; also called WT hCD112R; wildtype (WT) hCD112R protein; not shown: Fc domain of mouse IgG2a
With B7, in [10], the Kd is 0.0643 µM, the koff is 0.00514 s⁻¹ and the on-rate constant (kon) was 80000 M⁻¹ s⁻¹.

The record behind these values is US20260152555A1 (HUAHUI HEALTH, published 2026).
